Laboratory results taken from patent EP4591887A1, “GPC3 ANTIBODY-DRUG CONJUGATE AND USE THEREOF” (priority 2022, dated 2024).

B1: GC33 antibody (Chugai Pharmaceutical) (antibody, V domains shown)
VH: QVQLVQSGAEVKKPGASVKVSCKASGYTFTDYEMHWVRQAPGQGLEWMGALDPKTGDTAYSQKFKGRVTLTADKSTSTAYMELSSLTSEDTAVYYCTRFYSYTYWGQGTLVTVSS
VL: DVVMTQSPLSLPVTPGEPASISCRSSQSLVHSNGNTYLHWYLQKPGQSPQLLIYKVSNRFSGVPDRFSGSGSGTDFTLKISRVEAEDVGVYYCSQNTHVPPTFGQGTKLEIK
notes: Control antibody, prepared as in US 7919086 B2; Whole antibody; Detected with anti-human IgG
B2: GC33-L3-D3 (antibody, V domains shown)
VH: QVQLVQSGAEVKKPGASVKVSCKASGYTFTDYEMHWVRQAPGQGLEWMGALDPKTGDTAYSQKFKGRVTLTADKSTSTAYMELSSLTSEDTAVYYCTRFYSYTYWGQGTLVTVSS
VL: DVVMTQSPLSLPVTPGEPASISCRSSQSLVHSNGNTYLHWYLQKPGQSPQLLIYKVSNRFSGVPDRFSGSGSGTDFTLKISRVEAEDVGVYYCSQNTHVPPTFGQGTKLEIK
modifications: MA-PEG4-VC-PAB-DMEA-Duocarmycin SA (L3-D3) on cysteine thiols of the antibody freed by TCEP reduction of disulfide bonds; positions not given
B3: GC33-L4-D4 (antibody, V domains shown)
VH: QVQLVQSGAEVKKPGASVKVSCKASGYTFTDYEMHWVRQAPGQGLEWMGALDPKTGDTAYSQKFKGRVTLTADKSTSTAYMELSSLTSEDTAVYYCTRFYSYTYWGQGTLVTVSS
VL: DVVMTQSPLSLPVTPGEPASISCRSSQSLVHSNGNTYLHWYLQKPGQSPQLLIYKVSNRFSGVPDRFSGSGSGTDFTLKISRVEAEDVGVYYCSQNTHVPPTFGQGTKLEIK
modifications: MC-MMAF (L4-D4) on cysteine thiols of the antibody freed by TCEP reduction of disulfide bonds; positions not given
notes: Whole antibody; also called GC33 ADC; Anti-GPC3-L4-D4
B4: GC33-ZLA (antibody, V domains shown)
VH: QVQLVQSGAEVKKPGASVKVSCKASGYTFTDYEMHWVRQAPGQGLEWMGALDPKTGDTAYSQKFKGRVTLTADKSTSTAYMELSSLTSEDTAVYYCTRFYSYTYWGQGTLVTVSS
VL: DVVMTQSPLSLPVTPGEPASISCRSSQSLVHSNGNTYLHWYLQKPGQSPQLLIYKVSNRFSGVPDRFSGSGSGTDFTLKISRVEAEDVGVYYCSQNTHVPPTFGQGTKLEIK
modifications: ZLA linker-payload on cysteine thiols of the antibody freed by TCEP reduction of disulfide bonds; positions not given
notes: Whole antibody; also called GC33 ADC; Anti-GPC3-ZLA
B5: Hu 52H5D3B8-8 (antibody, human IgG1, kappa, V domains shown)
VH: EVQLVQSGAEVKKPGASVKVSCKASGYTFTDYEMHWVRQAPGQGLEWMGAIHPGSGGTAYNQKFKGRVTMTADKSISTAYMELSRLRSDDTAVYYCTRFYSYAYWGQGTLVTVSS
VL: DVVMTQTPLSLSVTPGQPASISCRSSQSLVHSNGNTYLQWYLQKPGQSPQLLIYKVSNRFSGVPDRFSGSGSGTDFTLKISRVEAEDVGVYFCSQSIHVPYTFGGGTKVEIKR
notes: also called humanized GPC3 antibody Hu 52H5D3B8-8
B6: Hu 52H5D3B8-7/8 CDRs with Y035 FRs (antibody, V domains shown)
VH: EVQLVQSGAEVKKPGASVKVSCKASGYTHSDYEMHWVRQAPGQGLEWMGAIHPGSGGTAYNQKFKGRVTITADKSTSTAYMELSSLRSEDTAVYYCARFYSYAYWGQGTLVTVSA
VL: DIVMTQTPLSLPVTPGEPASISCRSSQSLVHSNGNTYLQWYLQKPGQSPQLLIYKVSNRFSGVPDRFSGSGSGTDFTLKISRVEAEDVGVYYCSQSIHVPYTFGQGTKLEIKR
B7: Hu 52H5D3B8-8-L1-D1 (antibody, human IgG1, kappa, V domains shown)
VH: EVQLVQSGAEVKKPGASVKVSCKASGYTFTDYEMHWVRQAPGQGLEWMGAIHPGSGGTAYNQKFKGRVTMTADKSISTAYMELSRLRSDDTAVYYCTRFYSYAYWGQGTLVTVSS
VL: DVVMTQTPLSLSVTPGQPASISCRSSQSLVHSNGNTYLQWYLQKPGQSPQLLIYKVSNRFSGVPDRFSGSGSGTDFTLKISRVEAEDVGVYFCSQSIHVPYTFGGGTKVEIKR
modifications: MC-vc-PAB-MMAE (L1-D1) on cysteine thiols freed by TCEP reduction of disulfide bonds; positions not given
B8: Hu 52H5D3B8-8-ZLA (antibody, human IgG1, kappa, V domains shown)
VH: EVQLVQSGAEVKKPGASVKVSCKASGYTFTDYEMHWVRQAPGQGLEWMGAIHPGSGGTAYNQKFKGRVTMTADKSISTAYMELSRLRSDDTAVYYCTRFYSYAYWGQGTLVTVSS
VL: DVVMTQTPLSLSVTPGQPASISCRSSQSLVHSNGNTYLQWYLQKPGQSPQLLIYKVSNRFSGVPDRFSGSGSGTDFTLKISRVEAEDVGVYFCSQSIHVPYTFGGGTKVEIKR
modifications: ZLA linker-payload on cysteine thiols freed by TCEP reduction of disulfide bonds; positions not given
notes: Constant regions as for Hu 52H5D3B8-8; also called Hu 52H5D3B8-8 ADC; Anti-GPC3-ZLA
B9: Hu 52H5D3B8-8-L4-D4 (antibody, human IgG1, kappa, V domains shown)
VH: EVQLVQSGAEVKKPGASVKVSCKASGYTFTDYEMHWVRQAPGQGLEWMGAIHPGSGGTAYNQKFKGRVTMTADKSISTAYMELSRLRSDDTAVYYCTRFYSYAYWGQGTLVTVSS
VL: DVVMTQTPLSLSVTPGQPASISCRSSQSLVHSNGNTYLQWYLQKPGQSPQLLIYKVSNRFSGVPDRFSGSGSGTDFTLKISRVEAEDVGVYFCSQSIHVPYTFGGGTKVEIKR
modifications: MC-MMAF (L4-D4) on cysteine thiols freed by TCEP reduction of disulfide bonds; positions not given
notes: Constant regions as for Hu 52H5D3B8-8; also called Hu 52H5D3B8-8 ADC; Anti-GPC3-L4-D4
B10: Hu 52H5D3B8-7-L4-D4 (antibody, human IgG1, kappa, V domains shown)
VH: EVQLVQSGAEVKKPGASVKVSCKASGYTFTDYEMHWVRQAPGQGLEWMGAIHPGSGGTAYNQKFKGRVTMTADKSISTAYMELSRLRSDDTAVYYCTRFYSYAYWGQGTLVTVSS
VL: DVVMTQTPLSLSVTPGQPASISCRSSQSLVHSNGNTYLQWYLQKPGQSPQLLIYKVSNRFSGVPDRFSGSGSGTDFTLKISRVEAEDVGVYYCSQSIHVPYTFGGGTKVEIKR
modifications: MC-MMAF (L4-D4) on cysteine thiols freed by TCEP reduction of disulfide bonds; positions not given
B11: Hu 52H5D3B8-7-L1-D1 (antibody, human IgG1, kappa, V domains shown)
VH: EVQLVQSGAEVKKPGASVKVSCKASGYTFTDYEMHWVRQAPGQGLEWMGAIHPGSGGTAYNQKFKGRVTMTADKSISTAYMELSRLRSDDTAVYYCTRFYSYAYWGQGTLVTVSS
VL: DVVMTQTPLSLSVTPGQPASISCRSSQSLVHSNGNTYLQWYLQKPGQSPQLLIYKVSNRFSGVPDRFSGSGSGTDFTLKISRVEAEDVGVYYCSQSIHVPYTFGGGTKVEIKR
modifications: MC-vc-PAB-MMAE (L1-D1) on cysteine thiols freed by TCEP reduction of disulfide bonds; positions not given
B12: Y035 antibody (CARSGEN Therapeutics), humanized (antibody, V domains shown)
VH: EVQLVQSGAEVKKPGASVKVSCKASGYTHSDYEMHWVRQAPGQGLEWMGAIHPGSGDTAYNQRFKGRVTITADKSTSTAYMELSSLRSEDTAVYYCARFYSYAYWGQGTLVTVSA
VL: DIVMTQTPLSLPVTPGEPASISCRSSQSLVHSNGNTYLQWYLQKPGQSPQLLIYKVSNRFSGVPDRFSGSGSGTDFTLKISRVEAEDVGVYYCSQSIYVPYTFGQGTKLEIKR
B13: Hu 52H5D3B8-8-L3-D3 (antibody, human IgG1, kappa, V domains shown)
VH: EVQLVQSGAEVKKPGASVKVSCKASGYTFTDYEMHWVRQAPGQGLEWMGAIHPGSGGTAYNQKFKGRVTMTADKSISTAYMELSRLRSDDTAVYYCTRFYSYAYWGQGTLVTVSS
VL: DVVMTQTPLSLSVTPGQPASISCRSSQSLVHSNGNTYLQWYLQKPGQSPQLLIYKVSNRFSGVPDRFSGSGSGTDFTLKISRVEAEDVGVYFCSQSIHVPYTFGGGTKVEIKR
modifications: MA-PEG4-VC-PAB-DMEA-Duocarmycin SA (L3-D3) on cysteine thiols freed by TCEP reduction of disulfide bonds; positions not given
B14: Y035 CDRs with Hu 52H5D3B8-7 FRs (antibody, V domains shown)
VH: EVQLVQSGAEVKKPGASVKVSCKASGYTFTDYEMHWVRQAPGQGLEWMGAIHPGSGDTAYNQRFKGRVTMTADKSISTAYMELSRLRSDDTAVYYCTRFYSYAYWGQGTLVTVSS
VL: DVVMTQTPLSLSVTPGQPASISCRSSQSLVHSNGNTYLQWYLQKPGQSPQLLIYKVSNRFSGVPDRFSGSGSGTDFTLKISRVEAEDVGVYYCSQSIYVPYTFGGGTKVEIK
notes: built here from the pieces; detected with anti-human IgG
B15: Hu 52H5D3B8-7 (antibody, human IgG1, kappa, V domains shown)
VH: EVQLVQSGAEVKKPGASVKVSCKASGYTFTDYEMHWVRQAPGQGLEWMGAIHPGSGGTAYNQKFKGRVTMTADKSISTAYMELSRLRSDDTAVYYCTRFYSYAYWGQGTLVTVSS
VL: DVVMTQTPLSLSVTPGQPASISCRSSQSLVHSNGNTYLQWYLQKPGQSPQLLIYKVSNRFSGVPDRFSGSGSGTDFTLKISRVEAEDVGVYYCSQSIHVPYTFGGGTKVEIKR
notes: also called humanized GPC3 antibody Hu 52H5D3B8-7

Legend:
human GPC3 (Glypican-3) [1] = target: T1, human GPC3 (Glypican-3) (human, UniProt P51654 25-580); assay: FACS on HepG2 cells
T1 construct: whole, on cells; the cell line is named under assay or readout

human GPC3 (Glypican-3) [2] = target: T1, human GPC3 (Glypican-3); assay: cell-based or functional assay
human GPC3 (Glypican-3) [3] = target: T1, human GPC3 (Glypican-3); assay: FACS on CHO-K1 cells overexpressing human GPC3 (GPC3-CHO-K1)
human GPC3 (Glypican-3) [4] = target: T1, human GPC3 (Glypican-3); assay: FACS on HepG2 cells; remark: listed apart in the source
human GPC3 (Glypican-3) [5] = target: T1, human GPC3 (Glypican-3); assay: FACS on Huh-7 cells
human GPC3 (Glypican-3) [6] = target: T1, human GPC3 (Glypican-3); assay: FACS on HepG2 cells, top of the fitted fluorescence curve
human GPC3 (Glypican-3) [7] = target: T1, human GPC3 (Glypican-3); assay: cell-based or functional assay; remark: listed apart in the source
human GPC3 (Glypican-3) [8] = target: T1, human GPC3 (Glypican-3); assay: cell-based or functional assay; remark: listed apart in the source

Row | Binder | EC50 (human GPC3 (Glypican-3) [1]) [µg/mL] | Percentage reduction of GPC3 on cell surface (%), Huh7 cells, 2 h at 37°C against ice, FACS (human GPC3 (Glypican-3) [2]) [%] | EC50 (human GPC3 (Glypican-3) [3]) [nM] | EC50 (human GPC3 (Glypican-3) [4]) [nM] | EC50 (human GPC3 (Glypican-3) [5]) [nM] | Top (human GPC3 (Glypican-3) [6]) | EC50 value of cytotoxicity, Huh7 cells (96 h, PrestoBlue) (human GPC3 (Glypican-3) [7]) [µg/mL] | EC50 value of cytotoxicity, HepG2 cells (96 h, PrestoBlue) (human GPC3 (Glypican-3) [7]) [µg/mL] | internalization on HepG2 cells (pHAb dye-labelled anti-hIgG secondary antibody, 48 h): EC50 (human GPC3 (Glypican-3) [8]) [µg/mL] | internalization on HepG2 cells (pHAb dye-labelled anti-hIgG secondary antibody, 48 h): Top (human GPC3 (Glypican-3) [8])
1 | B1 | 0.269 | 60 | 0.956 | 0.745 | 0.953 | 64100 | – | – | – | –
2 | B2 | – | 59.9 | – | – | – | – | 0.0694 | – | – | –
3 | B3 | 0.112 | 61.3 | – | – | – | 60200 | 0.00882 | – | – | –
4 | B4 | 0.143 | 59 | – | – | – | 68000 | 0.0148 | 0.0892 | – | –
5 | B5 | 0.0743 | 65.3 | 0.411 | 0.351 | 0.418 | 75000 | – | – | 0.78 | 62400
6 | B6 | – | – | 0.763 | 0.769 | 0.782 | – | – | – | 1.14 | 59200
7 | B7 | – | 66.5 | – | – | – | – | 0.038 | 0.0409 | – | –
8 | B8 | 0.0569 | 64.3 | – | – | – | 69100 | 0.00352 | 0.0391 | – | –
9 | B9 | 0.0693 | 63.4 | – | – | – | 72900 | – | – | – | –
10 | B10 | – | – | – | – | – | – | 0.00455 | – | – | –
11 | B11 | – | 70.8 | – | – | – | – | – | – | – | –
12 | B12 | – | – | 1.46 | 1.25 | 1.18 | – | – | – | 1.08 | 52000
13 | B13 | – | 65 | – | – | – | – | 0.0274 | – | – | –
14 | B14 | – | – | 0.907 | 0.611 | 0.667 | – | – | – | 1.11 | 52200
15 | B15 | – | 64.4 | 0.446 | 0.405 | 0.464 | – | – | – | 0.72 | 58600
